± gives the uncertainty stated by the source.

B1: Transitional endoplasmic reticulum ATPase, residues 26 to 106; numbered along this chain, P55072 (parent)
chain: LIVDEAINEDNSVVSLSQPKMDELQLFRGDTVLLKGKKRREAVCIVLSDDTCSDEKIRMNRVVRNNLRVRLGDVISIQPCP

Variants of B1 are the subject of the data set. As to the kind of experiment: abundance fitness (aPCA) (normalised: wild type 0, dead -1); higher = more abundant; growth selection in yeast, the domain comes from the species named. Particulars: Homo sapiens.
Consider L34C, for which the abundance fitness came out at 0.26 ± 0.41. In the case of L34T, the abundance fitness was -0.558 ± 0.07. With L34K, the abundance fitness was -0.806 ± 0.2. On to L34S, for which the abundance fitness is -0.757 ± 0.12. L34E: the abundance fitness was -1.01 ± 0.25. In the case of L34W it was -0.777 ± 0.23; in that of L34M, -0.073 ± 0.11. For L34N, the abundance fitness is -0.891 ± 0.28.

For L34A, the abundance fitness was -0.292 ± 0.1. Turning to L34R, the abundance fitness was -0.963 ± 0.17.

For L34P, the abundance fitness was -1.04 ± 0.43. Take L34F: the abundance fitness was -0.856 ± 0.39. In the case of L34Q, the abundance fitness is -0.461 ± 0.32. The value for L34G was -0.46 ± 0.12. For the variant L34I, the abundance fitness turned out to be 0.074 ± 0.21. As for L34V, the abundance fitness was -0.047 ± 0.07.

Turning to K38Q, the abundance fitness is -0.051 ± 0.16.

K38T: the abundance fitness turned out to be 0.033 ± 0.11. Take K38S: the abundance fitness was -0.097 ± 0.092. As to K38R, the abundance fitness was -0.024 ± 0.077. With K38I, the abundance fitness is -0.282 ± 0.15. Consider K38W, for which the abundance fitness is -0.011 ± 0.14. The value for K38E was -0.09 ± 0.11; that for K38H was -0.05 ± 0.18. The value for K38Y was -0.088 ± 0.14; that for K38C was -0.225 ± 0.18. K38V: the abundance fitness was -0.153 ± 0.067. As for K38D, the abundance fitness was -0.11 ± 0.15. The value for K38M was -0.018 ± 0.12; that for K38A was 0.02 ± 0.076; that for K38F was -0.079 ± 0.2.

In the case of K38N, the abundance fitness came out at 0.186 ± 0.28. Regarding K38L, the abundance fitness came out at 0.019 ± 0.081. With K38G, the abundance fitness turned out to be 0.025 ± 0.067. The value for A42Q was -0.003 ± 0.096; that for A42M was -0.018 ± 0.065; that for A42P was -0.825 ± 0.15.

On to A42F, for which the abundance fitness was determined as 0.037 ± 0.095. A42G: the abundance fitness was -0.179 ± 0.049.

For A42D, the abundance fitness was determined as 0.028 ± 0.12.

Take A42K: the abundance fitness is 0.041 ± 0.13. For the variant A42C, the abundance fitness was 0.116 ± 0.15. With A42N, the abundance fitness is -0.147 ± 0.18. With A42I, the abundance fitness is -0.258 ± 0.16.

In the case of A42E, the abundance fitness is -0.117 ± 0.093. Regarding A42R, the abundance fitness stood at 0.028 ± 0.051. As to A42Y, the abundance fitness was -0.045 ± 0.22. Turning to A42L, the abundance fitness is -0.049 ± 0.056. For A42V, the abundance fitness was -0.065 ± 0.057.

As to A42H, the abundance fitness amounted to 0.027 ± 0.039. For A42S, the abundance fitness turned out to be 0.085 ± 0.069.

With R39S, the abundance fitness was determined as 0.016 ± 0.05. As to R39Y, the abundance fitness was -0.136 ± 0.1.

For R39T, the abundance fitness stood at 0.013 ± 0.1. With R39N, the abundance fitness is -0.17 ± 0.11. As for R39F, the abundance fitness is -0.007 ± 0.12. On to R39C, for which the abundance fitness was found to be 0.034 ± 0.13. As to R39A, the abundance fitness was -0.001 ± 0.06. On to R39D, for which the abundance fitness was 0.008 ± 0.12. As to R39L, the abundance fitness is -0.054 ± 0.061. Take R39W: the abundance fitness is -0.08 ± 0.094. The value for R39Q was 0.079 ± 0.12; that for R39I was -0.082 ± 0.17. For the variant R39G, the abundance fitness was 0.008 ± 0.045. R39E: the abundance fitness was found to be 0.056 ± 0.073. As to R39K, the abundance fitness is -0.041 ± 0.11.

For the variant R39M, the abundance fitness was -0.142 ± 0.12. In the case of R39P it was -0.079 ± 0.096.

Take C44E: the abundance fitness is -0.559 ± 0.18. In the case of C44N, the abundance fitness was -0.172 ± 0.25. For C44Y, the abundance fitness is -0.091 ± 0.13. Take C44F: the abundance fitness is -0.074 ± 0.091.

C44Q: the abundance fitness is 0.106 ± 0.083. C44S: the abundance fitness was -0.032 ± 0.069. In the case of C44D it was -0.707 ± 0.14; in that of C44M, 0.085 ± 0.077. For C44V, the abundance fitness is -0.026 ± 0.074. As for C44T, the abundance fitness was -0.066 ± 0.07. For C44I, the abundance fitness is -0.189 ± 0.099. For C44G, the abundance fitness is -0.006 ± 0.051. The value for C44R was -0.104 ± 0.053; that for C44L was -0.02 ± 0.034; that for C44K was 0.057 ± 0.075. In the case of C44P, the abundance fitness is -0.969 ± 0.14. In the case of C44A, the abundance fitness is -0.017 ± 0.062. With K37E, the abundance fitness is -0.035 ± 0.12. Take K37F: the abundance fitness is -0.124 ± 0.14. In the case of K37D it was -0.126 ± 0.17; in that of K37I, -0.182 ± 0.15; in that of K37P, -0.118 ± 0.097. The value for K37T was -0.072 ± 0.21; that for K37R was 0.028 ± 0.076. In the case of K37A, the abundance fitness was -0.222 ± 0.12. Take K37M: the abundance fitness stood at 0.156 ± 0.31. On to K37N, for which the abundance fitness is -0.143 ± 0.32. The value for K37W was -0.183 ± 0.1; that for K37S was 0.03 ± 0.042. In the case of K37G it was -0.05 ± 0.06; in that of K37C, -0.226 ± 0.1. As to K37L, the abundance fitness is -0.018 ± 0.082. On to T31R, for which the abundance fitness is 0.053 ± 0.047. T31C: the abundance fitness was -0.262 ± 0.11. With T31V, the abundance fitness is -0.104 ± 0.049.

Consider T31S, for which the abundance fitness is -0.028 ± 0.051. T31A: the abundance fitness was -0.089 ± 0.038. In the case of T31N, the abundance fitness was -0.023 ± 0.11.

T31L: the abundance fitness is -0.129 ± 0.061.

In the case of T31I, the abundance fitness is -0.235 ± 0.13. On to T31W, for which the abundance fitness is -0.134 ± 0.087. Consider T31Y, for which the abundance fitness is -0.161 ± 0.14. As for T31G, the abundance fitness is -0.063 ± 0.042. T31M: the abundance fitness was -0.004 ± 0.13. Regarding T31E, the abundance fitness worked out at 0.041 ± 0.064. Consider T31F, for which the abundance fitness is -0.198 ± 0.09.

T31D: the abundance fitness was -0.27 ± 0.1. For T31H, the abundance fitness is -0.048 ± 0.13. Regarding T31K, the abundance fitness was 0.077 ± 0.071. The value for T31P was -0.204 ± 0.076; that for G36W was -0.618 ± 0.15. The value for G36S was -0.026 ± 0.07; that for G36E was -0.191 ± 0.15. In the case of G36Y it was -0.186 ± 0.12; in that of G36M, -0.309 ± 0.13.

In the case of G36Q, the abundance fitness was -0.688 ± 0.18. Consider G36R, for which the abundance fitness was -0.37 ± 0.056.

Consider G36D, for which the abundance fitness is -0.262 ± 0.093. The value for G36C was 0.015 ± 0.083; that for G36A was -0.041 ± 0.036. Take G36V: the abundance fitness is -0.218 ± 0.059.

Consider G36K, for which the abundance fitness was -0.423 ± 0.15.

For the variant G36N, the abundance fitness is 0.058 ± 0.13. On to G36F, for which the abundance fitness was -0.135 ± 0.092. The value for G36T was -0.042 ± 0.096; that for G36L was -0.757 ± 0.099. As for G36I, the abundance fitness was -0.545 ± 0.2.

As for R28C, the abundance fitness is 0.053 ± 0.15. Regarding R28M, the abundance fitness turned out to be 0.011 ± 0.092. In the case of R28I it was -0.061 ± 0.1; in that of R28L, 0.012 ± 0.059; in that of R28V, 0.021 ± 0.067. For R28A, the abundance fitness stood at 0.085 ± 0.06. Consider R28T, for which the abundance fitness was 0.034 ± 0.069. Consider R28S, for which the abundance fitness was -0.009 ± 0.055. With R28N, the abundance fitness is 0.093 ± 0.14.

As for R28P, the abundance fitness is -0.012 ± 0.068.

As for R28Q, the abundance fitness was -0.008 ± 0.066. In the case of R28E it was 0.094 ± 0.056; in that of R28K, 0.064 ± 0.069. Regarding R28G, the abundance fitness is -0.027 ± 0.052. The value for R28H was 0.226 ± 0.17; that for R28F was -0.401 ± 0.31. With G29N, the abundance fitness was -0.03 ± 0.11. As for G29M, the abundance fitness is -0.098 ± 0.12. On to G29D, for which the abundance fitness is -0.172 ± 0.097.

G29A: the abundance fitness is -0.203 ± 0.06. On to G29C, for which the abundance fitness is -0.259 ± 0.1. In the case of G29S, the abundance fitness was -0.109 ± 0.062. In the case of G29L it was -0.209 ± 0.061; in that of G29H, 0.059 ± 0.17; in that of G29W, -0.268 ± 0.062. In the case of G29P it was -1.06 ± 0.28; in that of G29T, -0.391 ± 0.092; in that of G29R, -0.197 ± 0.056. On to G29E, for which the abundance fitness was -0.198 ± 0.063. On to G29Q, for which the abundance fitness was -0.104 ± 0.049.

G29F: the abundance fitness was -0.157 ± 0.098. In the case of G29V, the abundance fitness was -0.612 ± 0.098.

The record behind these values is the Human Domainome abundance scans (Beltran et al. 2025).
